From paper PMC6499725 come the findings set out here.

This assay concerns the target propionyl-CoA synthase (PCS) from Erythrobacter sp. NAP1 (Erythrobacter sp. NAP1). In words: crystal structure.

One may read the stoichiometry N as a count of units in the complex or per binding partner. The substance “propionyl-CoA synthase (PCS) from Erythrobacter sp. NAP1 (enzyme)” displayed a stoichiometry N of 2.
